Numbered stars: 1 amine (or outer) side, 2 acyl side, 3 side chain; on linkers, the order of the positions; unused ones are H or OH. Square brackets hold non-standard residues; d marks the D form. Side chains are listed from the residue outwards. Ends that are not written are not given here. * marks the point of attachment. C20 diacid = O=C(O)CCCCCCCCCCCCCCCCCCC(=O)*; γGlu = O=C(O)[C@H](CCC(=O)[*:2])N[*:1]; AEEA = NCCOCCOCC(=O)O; Aib = CC(C)(N)C(=O)O
Assays:
[1] = biological target: human GLP-1 receptor (hGLP1R) (human, UniProt P43220 24-463); assay: cell-based or functional assay
[2] = biological target: human secretin receptor (hSCTR) (human, UniProt P47872 23-440); assay: cell-based or functional assay
Sequence of human secretin receptor (hSCTR) (P47872 23-440): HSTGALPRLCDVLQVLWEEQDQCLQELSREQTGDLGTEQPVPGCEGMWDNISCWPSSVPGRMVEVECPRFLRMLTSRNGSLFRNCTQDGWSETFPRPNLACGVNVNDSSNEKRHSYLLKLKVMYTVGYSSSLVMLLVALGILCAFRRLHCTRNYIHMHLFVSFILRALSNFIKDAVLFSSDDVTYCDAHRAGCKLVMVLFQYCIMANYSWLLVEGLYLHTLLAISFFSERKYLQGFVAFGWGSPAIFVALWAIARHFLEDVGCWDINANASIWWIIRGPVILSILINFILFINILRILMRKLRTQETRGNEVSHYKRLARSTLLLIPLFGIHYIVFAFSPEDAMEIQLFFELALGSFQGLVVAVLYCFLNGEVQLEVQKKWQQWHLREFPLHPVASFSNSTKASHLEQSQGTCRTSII

pEC50 hGLPR1 [1] | pEC50 hSCTR [2] | Binder
10.2 -log M | 6.5 -log M | H[Aib]EGTFTSDVSVLK([AEEA-AEEA-γGlu-C20 diacid])ELAAQQRFLEHLV-NH2 [SEQ ID NO: 33]
10.9 -log M | 7.7 -log M | H[Aib]EGTFTSDYSYLK([AEEA-AEEA-γGlu-C20 diacid])EEA[Aib]LQRFLEHLV-NH2 [SEQ ID NO: 196]
10.4 -log M | 5.2 -log M | H[Aib]EGTFTSDVSELK([AEEA-AEEA-γGlu-C20 diacid])EFAAEQRFLEHLV-NH2 [SEQ ID NO: 31]
10 -log M | 6.1 -log M | H[Aib]EGTFTSDVSVLK([AEEA-AEEA-γGlu-C20 diacid])EFAAAQRFLEHLV-NH2 [SEQ ID NO: 29]
10.9 -log M | 6.6 -log M | H[Aib]EGTFTSDVSYLK([AEEA-AEEA-γGlu-C20 diacid])EEAATQRFLEHLV-NH2 [SEQ ID NO: 30]
10.6 -log M | 8.3 -log M | H[Aib]EGTFTSDYSELLEGAALQRFIQWLV-NH2 (N-terminus assumed; SMILES CC[C@H](C)[C@H](NC(=O)[C@H](Cc1ccccc1)NC(=O)[C@H](CCCNC(=N)N)NC(=O)[C@H](CCC(N)=O)NC(=O)[C@H](CC(C)C)NC(=O)[C@H](C)NC(=O)[C@H](C)NC(=O)CNC(=O)[C@H](CCC(=O)O)NC(=O)[C@H](CC(C)C)NC(=O)[C@H](CC(C)C)NC(=O)[C@H](CCC(=O)O)NC(=O)[C@H](CO)NC(=O)[C@H](Cc1ccc(O)cc1)NC(=O)[C@H](CC(=O)O)NC(=O)[C@H](CO)NC(=O)[C@@H](NC(=O)[C@H](Cc1ccccc1)NC(=O)[C@@H](NC(=O)CNC(=O)[C@H](CCC(=O)O)NC(=O)C(C)(C)NC(=O)[C@@H](N)Cc1c[nH]cn1)[C@@H](C)O)[C@@H](C)O)C(=O)N[C@@H](CCC(N)=O)C(=O)N[C@@H](Cc1c[nH]c2ccccc12)C(=O)N[C@@H](CC(C)C)C(=O)N[C@H](C(N)=O)C(C)C) [SEQ ID NO: 199]
10.9 -log M | 7.2 -log M | H[Aib]EGTFTSDVSRLK([AEEA-AEEA-γGlu-C20 diacid])ETAATQRFLEHLV-NH2 [SEQ ID NO: 26]
10.6 -log M | 8.3 -log M | H[Aib]EGTFTSDYSVLLEGAALQRFIQWLV-NH2 (N-terminus assumed; SMILES CC[C@H](C)[C@H](NC(=O)[C@H](Cc1ccccc1)NC(=O)[C@H](CCCNC(=N)N)NC(=O)[C@H](CCC(N)=O)NC(=O)[C@H](CC(C)C)NC(=O)[C@H](C)NC(=O)[C@H](C)NC(=O)CNC(=O)[C@H](CCC(=O)O)NC(=O)[C@H](CC(C)C)NC(=O)[C@H](CC(C)C)NC(=O)[C@@H](NC(=O)[C@H](CO)NC(=O)[C@H](Cc1ccc(O)cc1)NC(=O)[C@H](CC(=O)O)NC(=O)[C@H](CO)NC(=O)[C@@H](NC(=O)[C@H](Cc1ccccc1)NC(=O)[C@@H](NC(=O)CNC(=O)[C@H](CCC(=O)O)NC(=O)C(C)(C)NC(=O)[C@@H](N)Cc1c[nH]cn1)[C@@H](C)O)[C@@H](C)O)C(C)C)C(=O)N[C@@H](CCC(N)=O)C(=O)N[C@@H](Cc1c[nH]c2ccccc12)C(=O)N[C@@H](CC(C)C)C(=O)N[C@H](C(N)=O)C(C)C) [SEQ ID NO: 198]
10.7 -log M | 6.4 -log M | H[Aib]EGTFTSDVSRLK([AEEA-AEEA-γGlu-C20 diacid])EEAAEQRFLEHLV-NH2 [SEQ ID NO: 22]
10.7 -log M | 5.9 -log M | H[Aib]EGTFTSDVSVLK([AEEA-AEEA-γGlu-C20 diacid])EEAAAQRFLEHLV-NH2 [SEQ ID NO: 28]
10.8 -log M | 7.1 -log M | H[Aib]EGTFTSDVSRLK([AEEA-AEEA-γGlu-C20 diacid])ELAAQQRFLEHLV-NH2 [SEQ ID NO: 3]
10.7 -log M | 6.8 -log M | H[Aib]EGTFTSDVSRLK([AEEA-AEEA-γGlu-C20 diacid])ETAAAQRFLEHLV-NH2 [SEQ ID NO: 23]
10.4 -log M | 7.4 -log M | H[Aib]EGTFTSDYSFLLEGAALQRFIQWLV-NH2 (N-terminus assumed; SMILES CC[C@H](C)[C@H](NC(=O)[C@H](Cc1ccccc1)NC(=O)[C@H](CCCNC(=N)N)NC(=O)[C@H](CCC(N)=O)NC(=O)[C@H](CC(C)C)NC(=O)[C@H](C)NC(=O)[C@H](C)NC(=O)CNC(=O)[C@H](CCC(=O)O)NC(=O)[C@H](CC(C)C)NC(=O)[C@H](CC(C)C)NC(=O)[C@H](Cc1ccccc1)NC(=O)[C@H](CO)NC(=O)[C@H](Cc1ccc(O)cc1)NC(=O)[C@H](CC(=O)O)NC(=O)[C@H](CO)NC(=O)[C@@H](NC(=O)[C@H](Cc1ccccc1)NC(=O)[C@@H](NC(=O)CNC(=O)[C@H](CCC(=O)O)NC(=O)C(C)(C)NC(=O)[C@@H](N)Cc1c[nH]cn1)[C@@H](C)O)[C@@H](C)O)C(=O)N[C@@H](CCC(N)=O)C(=O)N[C@@H](Cc1c[nH]c2ccccc12)C(=O)N[C@@H](CC(C)C)C(=O)N[C@H](C(N)=O)C(C)C) [SEQ ID NO: 202]
10 -log M | 5.5 -log M | H[Aib]EGTFTSDVSFLK([AEEA-AEEA-γGlu-C20 diacid])EFAA[Aib]QRFLEHLV-NH2 [SEQ ID NO: 27]
10.3 -log M | 6.8 -log M | H[Aib]EGTFTSDVSRLK([AEEA-AEEA-γGlu-C20 diacid])EFAAQQRFLEHLV-NH2 [SEQ ID NO: 24]
10.8 -log M | 8.1 -log M | H[Aib]EGTFTSDYS[Aib]LLEGAALQRFIQWLV-NH2 (N-terminus assumed; SMILES CC[C@H](C)[C@H](NC(=O)[C@H](Cc1ccccc1)NC(=O)[C@H](CCCNC(=N)N)NC(=O)[C@H](CCC(N)=O)NC(=O)[C@H](CC(C)C)NC(=O)[C@H](C)NC(=O)[C@H](C)NC(=O)CNC(=O)[C@H](CCC(=O)O)NC(=O)[C@H](CC(C)C)NC(=O)[C@H](CC(C)C)NC(=O)C(C)(C)NC(=O)[C@H](CO)NC(=O)[C@H](Cc1ccc(O)cc1)NC(=O)[C@H](CC(=O)O)NC(=O)[C@H](CO)NC(=O)[C@@H](NC(=O)[C@H](Cc1ccccc1)NC(=O)[C@@H](NC(=O)CNC(=O)[C@H](CCC(=O)O)NC(=O)C(C)(C)NC(=O)[C@@H](N)Cc1c[nH]cn1)[C@@H](C)O)[C@@H](C)O)C(=O)N[C@@H](CCC(N)=O)C(=O)N[C@@H](Cc1c[nH]c2ccccc12)C(=O)N[C@@H](CC(C)C)C(=O)N[C@H](C(N)=O)C(C)C) [SEQ ID NO: 197]
9 -log M | 5.1 -log M | H[Aib]EGTFTSDVSFLK([AEEA-AEEA-γGlu-C20 diacid])ETAA[Aib]QRFLEHLV-NH2 [SEQ ID NO: 25]
10.6 -log M | 6.2 -log M | H[Aib]EGTFTSDVSTLK([AEEA-AEEA-γGlu-C20 diacid])E[Aib]AA[Aib]QRFLEHLV-NH2 [SEQ ID NO: 32]
10.6 -log M | 6.4 -log M | H[Aib]EGTFTSDVSRLK([AEEA-AEEA-γGlu-C20 diacid])ETAAEQRFLEHLV-NH2 [SEQ ID NO: 34]
10.9 -log M | 7.9 -log M | H[Aib]EGTFTSDYSYLLEGAALQRFIQWLV-NH2 (N-terminus assumed; SMILES CC[C@H](C)[C@H](NC(=O)[C@H](Cc1ccccc1)NC(=O)[C@H](CCCNC(=N)N)NC(=O)[C@H](CCC(N)=O)NC(=O)[C@H](CC(C)C)NC(=O)[C@H](C)NC(=O)[C@H](C)NC(=O)CNC(=O)[C@H](CCC(=O)O)NC(=O)[C@H](CC(C)C)NC(=O)[C@H](CC(C)C)NC(=O)[C@H](Cc1ccc(O)cc1)NC(=O)[C@H](CO)NC(=O)[C@H](Cc1ccc(O)cc1)NC(=O)[C@H](CC(=O)O)NC(=O)[C@H](CO)NC(=O)[C@@H](NC(=O)[C@H](Cc1ccccc1)NC(=O)[C@@H](NC(=O)CNC(=O)[C@H](CCC(=O)O)NC(=O)C(C)(C)NC(=O)[C@@H](N)Cc1c[nH]cn1)[C@@H](C)O)[C@@H](C)O)C(=O)N[C@@H](CCC(N)=O)C(=O)N[C@@H](Cc1c[nH]c2ccccc12)C(=O)N[C@@H](CC(C)C)C(=O)N[C@H](C(N)=O)C(C)C) [SEQ ID NO: 201]
10.7 -log M | 8.1 -log M | H[Aib]EGTFTSDYSWLLEGAALQRFIQWLV-NH2 (N-terminus assumed; SMILES CC[C@H](C)[C@H](NC(=O)[C@H](Cc1ccccc1)NC(=O)[C@H](CCCNC(=N)N)NC(=O)[C@H](CCC(N)=O)NC(=O)[C@H](CC(C)C)NC(=O)[C@H](C)NC(=O)[C@H](C)NC(=O)CNC(=O)[C@H](CCC(=O)O)NC(=O)[C@H](CC(C)C)NC(=O)[C@H](CC(C)C)NC(=O)[C@H](Cc1c[nH]c2ccccc12)NC(=O)[C@H](CO)NC(=O)[C@H](Cc1ccc(O)cc1)NC(=O)[C@H](CC(=O)O)NC(=O)[C@H](CO)NC(=O)[C@@H](NC(=O)[C@H](Cc1ccccc1)NC(=O)[C@@H](NC(=O)CNC(=O)[C@H](CCC(=O)O)NC(=O)C(C)(C)NC(=O)[C@@H](N)Cc1c[nH]cn1)[C@@H](C)O)[C@@H](C)O)C(=O)N[C@@H](CCC(N)=O)C(=O)N[C@@H](Cc1c[nH]c2ccccc12)C(=O)N[C@@H](CC(C)C)C(=O)N[C@H](C(N)=O)C(C)C) [SEQ ID NO: 200]
10.9 -log M | 6.7 -log M | H[Aib]EGTFTSDVSRLK([AEEA-AEEA-γGlu-C20 diacid])ETAAQQRFLEHLV-NH2 [SEQ ID NO: 21]
